From patent EP4814018A2 (F. Hoffmann-La Roche AG, dated 2026) come the findings set out here.

Positions count from the first letter of the chain named.

The chains are these.
B1: clone-299 (antibody, V domains shown)
VH: QSMEESGGRLVTPGTPLTLTCTVSGFSLSSYAMSWVRQAPGKGLEWIGYIWSGGSTDYASWAKGRFTISKTSTTVDLKITSPTTEDTATYFCARRYGTSYPDYGDANGFDPWGPGTLVTVSS
VL: AYDMTQTPASVEVAVGGTVTIKCQASQSISSYLSWYQQKPGQRPKLLIYRASTLASGVSSRFKGSGSGTQFTLTISGVECADAATYYCQQCYSSSNVDNTFGGGTEVVVK
notes: Rabbit variable domains
B2: murine anti-transferrin receptor antibody 128.1 (antibody, V domains shown)
VH: QVQLVQSGAEVKKPGASVKVSCKASGYTFTGYTMNWVRQAPGQGLEWMGRINPHNGGTDYAQKFQGRVTMTRDTSISTAYMELSRLRSDDTAVYYCARGYYYYSLDYWGQGTLVTVSS
VL: DIQMTQSPSSLSASVGDRVTITCRASSSIRYIHWYQQKPGKAPKRLIYDTSNLASGVPSRFSGSGSGTEFTLTISSLQPEDFATYYCHQRNSYPWTFGQGTRLEIK
B3: clone 494 VH 0 (mu) / VL 1 (antibody, V domains shown)
VH: EVQLQQSGAVLVKPGASVKLSCPASGFNIKDTYIHWVIQRPEQGLEWIGRIDPANGDTKCDPKFQVKATITADTSSNTAYLQLSSLTSEDTAVYFCVRDYLYPYYFDFWGQGTTLTVSS
VL: KIQMTQSPSSLSASVGDRVTITCRASESVDTYVSWYQQKPGKAPKLLIYGASNRYTGVPSRFSGSGSGTDFTLTISSLQPEDFADYYCGQTYNYPLTFGQGTKLEI
B4: clone 494 VH 0 (mu) / VL 2 (antibody, V domains shown)
VH: B3 VH
VL: KIVLTQSPGTLSLSPGERATLSCRASESVDTYVSWYQQKPGQAPRLLIYGASNRYTGVPDRFSGSGSGTDFTLTISRLEPEDFADYYCGQTYNYPLTFGQGTKLEI
B5: clone 494 VH 0 (mu) / VL 4 (antibody, V domains shown)
VH: B3 VH
VL: B4 VL with V58I
B6: clone 494 VH 0 (mu) / VL 3 (antibody, V domains shown)
VH: B3 VH
VL: B4 VL with K1E
B7: clone 494 VH 1 / VL 0 (mu) (antibody, V domains shown)
VH: QVQLVQSGAEVKKPGASVKVSCKASGFNIKDTYIHWVIQAPGQGLEWMGRIDPANGDTKSDPKFQVRVTITADTSTSTVYMELSSLRSEDTAVYYCVRDYLYPYYFDFWGQGTTVTVSS
VL: KIVMTQSPKSMSMSVGERVTLNCRASESVDTYVSWYQQKPEQSPELLIYGASNRYTGVPDRFTGSGSATDFTLTISSVQAEDLADYYCGQTYNYPLTFGAGTKLELKR
B8: clone 494 VH 2 / VL 3 (antibody, V domains shown)
VH: B7 VH with D61A
VL: B4 VL with K1E
B9: clone 494 VH 3 / VL 4 (antibody, V domains shown)
VH: B7 VH with V66G
VL: B4 VL with V58I
B10: clone 494 VH 4 / VL 3 (antibody, V domains shown)
VH: B7 VH with A16S, V66G, T74E, V79A
VL: B4 VL with K1E
B11: clone 494 VH 1 / VL 3 (antibody, V domains shown)
VH: B7 VH
VL: B4 VL with K1E
B12: clone 494 VH 3 / VL 2 (antibody, V domains shown)
VH: B7 VH with V66G
VL: B4 VL
B13: clone 494 VH 3 / VL 1 (antibody, V domains shown)
VH: B7 VH with V66G
VL: B3 VL
B14: clone 494 VH 4 / VL 1 (antibody, V domains shown)
VH: B7 VH with A16S, V66G, T74E, V79A
VL: B3 VL
B15: clone 494 VH 2 / VL 4 (antibody, V domains shown)
VH: B7 VH with D61A
VL: B4 VL with V58I
B16: clone 494 VH 3 / VL 0 (mu) (antibody, V domains shown)
VH: B7 VH with V66G
VL: B7 VL
B17: clone 494 VH 4 / VL 0 (mu) (antibody, V domains shown)
VH: B7 VH with A16S, V66G, T74E, V79A
VL: B7 VL
B18: clone 494 VH 1 / VL 2 (antibody, V domains shown)
VH: B7 VH
VL: B4 VL
B19: clone 494 VH 1 / VL 4 (antibody, V domains shown)
VH: B7 VH
VL: B4 VL with V58I
B20: clone 494 VH 2 / VL 1 (antibody, V domains shown)
VH: B7 VH with D61A
VL: B3 VL
B21: clone 494 VH 2 / VL 0 (mu) (antibody, V domains shown)
VH: B7 VH with D61A
VL: B7 VL
B22: clone 494 VH 4 / VL 2 (antibody, V domains shown)
VH: B7 VH with A16S, V66G, T74E, V79A
VL: B4 VL

T3 sequence (P02786 89-760 limits assumed): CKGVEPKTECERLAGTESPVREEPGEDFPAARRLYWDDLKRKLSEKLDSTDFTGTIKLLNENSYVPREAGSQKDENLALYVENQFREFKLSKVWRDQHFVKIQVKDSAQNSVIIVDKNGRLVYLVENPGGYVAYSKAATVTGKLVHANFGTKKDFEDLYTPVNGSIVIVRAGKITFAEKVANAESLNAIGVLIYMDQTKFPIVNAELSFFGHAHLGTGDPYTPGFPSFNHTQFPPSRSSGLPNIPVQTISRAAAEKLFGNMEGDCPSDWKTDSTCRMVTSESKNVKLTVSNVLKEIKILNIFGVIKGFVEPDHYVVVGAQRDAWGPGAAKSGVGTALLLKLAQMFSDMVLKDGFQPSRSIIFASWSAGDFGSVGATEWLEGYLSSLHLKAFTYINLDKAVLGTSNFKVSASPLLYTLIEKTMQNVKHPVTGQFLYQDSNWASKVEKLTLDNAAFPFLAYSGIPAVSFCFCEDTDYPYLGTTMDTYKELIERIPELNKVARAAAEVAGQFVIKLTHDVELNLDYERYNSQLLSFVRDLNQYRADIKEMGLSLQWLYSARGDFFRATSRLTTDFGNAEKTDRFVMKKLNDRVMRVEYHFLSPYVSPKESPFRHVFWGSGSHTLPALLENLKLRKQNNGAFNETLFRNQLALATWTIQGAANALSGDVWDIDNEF

The first experiment addresses T1, cynomolgus transferrin receptor on stably transfected CHO cells (cynomolgus).
T1 construct: whole, on cells; also called Cyno TfR-CHO; cyTfR (FACS)
As to the kind of experiment: FACS, cyno against human TfR CHO cells.
Consider B1, for which the “ratio EC50 Cyno/ human” value was 0.9 and the “ratio max Cyno/ human” value amounted to 1. B2: the “ratio EC50 Cyno/ human” value came to 3.3 and the “ratio max Cyno/ human” value worked out at 0.6.

The target of the next experiment is T2, cynomolgus transferrin receptor (cynomolgus, UniProt H9EXL1 89-760 (rhesus entry)).
T2 construct: also called cyTfR; Cyno TfR
T2 sequence (chain, as listed by the source): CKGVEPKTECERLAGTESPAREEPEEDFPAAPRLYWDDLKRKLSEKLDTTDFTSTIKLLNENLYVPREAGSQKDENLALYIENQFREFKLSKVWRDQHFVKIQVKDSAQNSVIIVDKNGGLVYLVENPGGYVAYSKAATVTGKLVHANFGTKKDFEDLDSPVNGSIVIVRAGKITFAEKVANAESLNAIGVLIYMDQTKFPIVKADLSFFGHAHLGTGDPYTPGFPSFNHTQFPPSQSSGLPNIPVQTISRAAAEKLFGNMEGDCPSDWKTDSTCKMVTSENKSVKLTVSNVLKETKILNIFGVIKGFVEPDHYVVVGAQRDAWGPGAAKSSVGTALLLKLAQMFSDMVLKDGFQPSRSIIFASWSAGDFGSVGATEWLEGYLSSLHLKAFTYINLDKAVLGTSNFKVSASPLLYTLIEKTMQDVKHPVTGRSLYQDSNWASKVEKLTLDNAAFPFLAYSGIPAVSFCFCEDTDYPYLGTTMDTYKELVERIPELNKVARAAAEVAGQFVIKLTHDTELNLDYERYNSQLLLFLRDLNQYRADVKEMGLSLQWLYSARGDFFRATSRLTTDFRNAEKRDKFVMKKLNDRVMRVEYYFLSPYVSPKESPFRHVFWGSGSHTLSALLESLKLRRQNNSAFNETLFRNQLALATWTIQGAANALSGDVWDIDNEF
As to the kind of experiment: BIAcore T200, biotinylated TfR captured (Example 13), 25 °C.
Take B2: binding was put at a Kd of 136 nM, the off-rate constant (koff) worked out at 0.0733 s⁻¹ and the kon worked out at 541000 M⁻¹ s⁻¹.

The target of a further experiment is T2, cynomolgus transferrin receptor. In words: BIAcore B4000, biotinylated TfR captured (Example 14), 25 °C.
With B2, the koff came out at 0.0778 s⁻¹.

A further experiment addresses T1, cynomolgus transferrin receptor on …. As to the kind of experiment: FACS on cyTfR CHO cells.
As for B2, the EC50 was 0.314 µg/mL.

The next experiment addresses T3, human transferrin receptor (human, UniProt P02786 89-760).
T3 construct: also called huTfR; hTfR
In words: SPR off-rate.
On to B3, for which the koff stood at 0.00037 s⁻¹.

The molecule B4 gave a koff of 0.000364 s⁻¹.

In turn, B5 gave a koff of 0.000542 s⁻¹. Still for that read-out and setting: to B6 belongs 0.000339 s⁻¹; to B7, 0.000137 s⁻¹. On to B8, for which the off-rate (koff) was 0.00043 s⁻¹.

The molecule B9 had an off-rate (koff) of 0.000683 s⁻¹. Still for that read-out and setting: then B10, with 0.000452 s⁻¹.

B11: the koff was determined as 0.000386 s⁻¹. B12: the off-rate (koff) worked out at 0.000415 s⁻¹.

In the case of B13, the off-rate constant (koff) came out at 0.000476 s⁻¹. The same measure, in the same setting: to B14 belongs 0.000448 s⁻¹. The same measure, in the same setting: to B15 belongs 0.000703 s⁻¹. Still for that read-out and setting: then B16, with 0.000148 s⁻¹; and B17, with 0.000177 s⁻¹. In turn, B18 showed a koff of 0.000399 s⁻¹. Same read-out and setting: to B19 belongs 0.000657 s⁻¹; to B20, 0.000454 s⁻¹. As for B21, the off-rate constant (koff) was found to be 0.000156 s⁻¹. B22 returned an off-rate (koff) of 0.000438 s⁻¹.

A further experiment concerns the target T3, human transferrin receptor. As to the kind of experiment: BIAcore.
Turning to B1, the “BIAcore t1/2” value is 19 min. As to B2, the “BIAcore t1/2” value amounted to 19 min.

A further experiment concerns the target T2, cynomolgus transferrin receptor. As to the kind of experiment: BIAcore.
As to B1, the “BIAcore t1/2” value came to 42 min. Turning to B2, the “BIAcore t1/2” value amounted to 0.2 min.
